According to patent publication US20180346889, “DNA POLYMERASE VARIANT” (KYUSHU UNIVERSITY, NATIONAL UNIVERSITY CORPORATION, published 2018):

Columns and labels:
[1] = target: T1, Taq58 (TaqLF P685S Y686R E687K) (Thermus aquaticus, UniProt P19821 SEQ:1-544); assay: EMSA; apparent; shifted band from 25 nM; 20 mM Tris-HCl pH 8.8, 10 mM NaCl, 5 mM MgCl2, 40 C; conditions: label: 5'-32P on d27; primer-template, 27 bp duplex with 22 nt 5' overhang on 49N
T1 chain: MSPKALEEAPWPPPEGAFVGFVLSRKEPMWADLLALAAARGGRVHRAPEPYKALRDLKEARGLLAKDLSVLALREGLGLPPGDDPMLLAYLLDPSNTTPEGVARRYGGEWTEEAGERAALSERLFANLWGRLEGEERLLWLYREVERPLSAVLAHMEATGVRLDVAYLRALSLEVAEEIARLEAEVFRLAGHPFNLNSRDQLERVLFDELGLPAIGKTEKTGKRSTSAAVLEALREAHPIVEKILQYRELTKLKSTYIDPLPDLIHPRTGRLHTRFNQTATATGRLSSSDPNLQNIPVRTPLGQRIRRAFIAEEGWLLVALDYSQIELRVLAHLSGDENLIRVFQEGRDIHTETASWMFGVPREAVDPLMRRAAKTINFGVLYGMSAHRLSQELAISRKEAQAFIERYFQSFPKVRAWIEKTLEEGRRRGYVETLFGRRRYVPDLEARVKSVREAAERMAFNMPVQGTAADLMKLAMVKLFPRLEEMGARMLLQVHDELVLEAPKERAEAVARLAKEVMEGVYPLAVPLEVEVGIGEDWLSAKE
Procedure: (§1) The affinity of variant Taq polymerases and primed DNAs was examined using a gel shift assay. The measurement was carried out in the following manner.
(§2) First, DNA in which a 27 nt of a single-stranded DNA (d27, SEQ ID NO: 50) radioactive-labeled with ³²P at 5′-terminal was annealed to a non-labeled 49 nt of a single-stranded DNA (49N, SEQ ID NO: 51) was used as a substrate DNA for the measurement of DNA binding ability. DNA polymerase proteins were added to 10 μl of Solution E [20 mM Tris-HCl, pH 8.8, 10 mM NaCl, 5 mM MgCl₂, 14 mM 2-mercaptoethanol, 0.1 mg/ml BSA and 5% (v/v) glycerol] containing 2 nM substrate DNA so as to have concentration of from 0.6 to 400 nM, and the mixture was held at 40° C. for 5 minutes. A liquid DNA-enzyme mixture was subjected to 1% agarose gel and electrophoresed in a 0.1×TAE solution [4 mM Tris base, 2 mM acetic acid and 0.1 mM EDTA]. After the termination of electrophoresis, the gel was dried, and the dried gel was exposed to an imaging plate. Typhoon TRIO+ was used to detect a labeled DNA.

[2] = target: T2, Taq59 (TaqLF P685R Y686R E687R) (Thermus aquaticus, UniProt P19821 SEQ:1-544); assay: EMSA; apparent; clear shift at 25 nM, two-step shift at 400 nM; 20 mM Tris-HCl pH 8.8, 10 mM NaCl, 5 mM MgCl2, 40 C; conditions: label: 5'-32P on d27; primer-template, 27 bp duplex with 22 nt 5' overhang on 49N
T2 chain: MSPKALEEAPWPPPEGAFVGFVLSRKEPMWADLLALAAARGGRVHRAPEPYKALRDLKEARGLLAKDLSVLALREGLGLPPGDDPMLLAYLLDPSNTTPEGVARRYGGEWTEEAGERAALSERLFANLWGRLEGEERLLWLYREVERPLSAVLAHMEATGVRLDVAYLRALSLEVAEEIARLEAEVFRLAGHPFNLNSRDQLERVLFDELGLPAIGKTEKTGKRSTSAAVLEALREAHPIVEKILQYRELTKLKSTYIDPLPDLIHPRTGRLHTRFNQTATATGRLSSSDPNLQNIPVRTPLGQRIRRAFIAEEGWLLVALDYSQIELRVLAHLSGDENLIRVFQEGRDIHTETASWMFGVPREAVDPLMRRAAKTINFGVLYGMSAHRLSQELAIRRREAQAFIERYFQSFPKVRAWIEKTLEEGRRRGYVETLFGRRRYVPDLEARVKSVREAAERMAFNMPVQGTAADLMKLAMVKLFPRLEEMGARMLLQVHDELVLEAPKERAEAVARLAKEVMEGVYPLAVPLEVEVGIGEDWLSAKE
Procedure: as §1, §2

B1: primed DNA d27/49N (dsDNA)
DNA 1: AGCTATGACCATGATTACGAATTGCTT
DNA 2: AGCTACCATGCCTGCACGAATTAAGCAATTCGTAATCATGGTCATAGCT
Kd [1]: 0.1 µM | Kd [2]: 0.04 µM
